Values belong to the compound of their own block, whether it stands above or below them. *1 amine or outer side, *2 acyl side, *3 side chain or, on linkers, in order; H or OH if unused. Where a SMILES comes first, the peptide text is derived from it. Bridges are numbered along the chain shown (N, C = ends). Primed or numbered codes have the meaning given here. Side-chain parts run from the residue outwards. [ ]: non-standard residue; d: D form. The star is where a group is joined. Trp(5-OMe) = COc1ccc2[nH]cc(C[C@H](N)C(=O)O)c2c1; DBCO = C1#Cc2ccccc2N(*)Cc2ccccc21; Igl = N[C@H](C(=O)O)C1Cc2ccccc2C1; PEG5 = NCCOCCOCCOCCOCCOCCC(=O)O; Pen = CC(C)(S)[C@H](N)C(=O)O; Suc = O=C(CCC(=O)[*:2])[*:1]; DBCO′ = dibenzocyclooctyne; Pra = C#CC[C@H](N)C(=O)O
How the values were obtained:
[1] = target: T1, Fc tagged recombinant human EGFR (rhEGFR-Fc) (Homo sapiens, UniProt P00533); format: binding; conditions: for KD (μM): Table 11, P2 Ala scan; for Relative Affinity: Table 11, relative to the KD of parent P2
T1 construct: purchased R&D Systems 344-ER-050
Experimental: (§1) Surface plasmon resonance (SPR) binding studies were carried out on a Biacore T200 instrument (GE Healthcare). Approximately 10,000 RU of anti-Fc antibody (GE Healthcare, Cat #BR100839) was immobilized via amine coupling on each of flow cells 1 and 2 of a CM5 dextran-coated gold sensor chip (GE Healthcare, Cat #BR100530). […] The contact time and resulting amount of rhEGFR-Fc capture was varied based on the nature of the analyte, namely whether it was a peptide or nanoparticle.
(§2) Peptide binding assays were carried out in 10 mM PBS buffer supplemented with 0.05% surfactant P20 and 5% DMSO by volume, at 25° C. Peptides were injected over the rhEGFR-Fc surface for 60 s, followed by dissociation (buffer injection) for 60 s and regeneration with a 10 s pulse of 3M MgCl2. A fresh rhEGFR-Fc surface was generated for each concentration of each peptide tested. Peptide binding data was analyzed by fitting to a 1:1 Langmuir kinetic model to obtain the on-rate (ka), off-rate (kd) and/or equilibrium binding constant (KD) of the interaction.

[2] = target: T2, EGF bound EGFR (Homo sapiens, UniProt P00533); assay: SPR peptide binding, rhEGF pre-injected; conditions: With EGF
T2 construct: purchased R&D Systems 344-ER-050 (rhEGFR-Fc); 236-EG (rhEGF)
Experimental: as §1, §2

[3] = target: T3, recombinant human EGFR (Homo sapiens, UniProt P00533); assay: P2 competition ELISA (P2-Biotin dimer tracer, 50 nM EGF); format: binding
T3 construct: Fc; purchased R&D Systems

[4] = target: T4, rhEGFR-Fc (Homo sapiens, UniProt P00533); assay: SPR nanoparticle binding, without EGF; conditions: 1 mg/mL; for nanoparticle binding: FIG. 9C
T4 construct: purchased R&D Systems 344-ER-050
Experimental: Surface plasmon resonance (SPR) binding studies were carried out on a Biacore T200 instrument (GE Healthcare). Approximately 10,000 RU of anti-Fc antibody (GE Healthcare, Cat #BR100839) was immobilized via amine coupling on each of flow cells 1 and 2 of a CM5 dextran-coated gold sensor chip (GE Healthcare, Cat #BR100530). Fc tagged recombinant human EGFR (rhEGFR-Fc, R&D systems, Cat #344-ER-050) was reconstituted at 10 μg/mL in PBS and captured on flow cell 2. The contact time and resulting amount of rhEGFR-Fc capture was varied based on the nature of the analyte, namely whether it was a peptide or nanoparticle.
Nanoparticle binding assays were carried out in 10 mM HBS-EP+ buffer (GE Healthcare, Cat #BR100669) at 25° C. Nanoparticles were injected over the rh EGFR-Fc surface for 60 s, followed by dissociation for 60 s and regeneration with a 10 s pulse of 3M MgCl2. A fresh rhEGFR-Fc surface was generated for each concentration of each nanoparticle tested. Nanoparticle sensograms could not be fit accurately to the 1:1 Langmuir kinetic model due to the multivalent nature of the binding interaction between nanoparticle and target. Instead, nanoparticle binding data was presented as a plot of binding response vs. concentration at a single time point after the injection end.

[5] = target: T3, recombinant human EGFR; assay: EGF competition ELISA; format: binding
Experimental: Plates were blocked for 2 h with 2% BSA in PBS at RT. […] Plates were washed three times with PBS containing 0.05% Tween-20 (PBS-T) and then incubated with a 1:10,000 dilution of streptavidin-HRP (Thermo Fisher Scientific) diluted in assay buffer for 90 min at RT. Plates were washed an additional three times with PBS-T, and then incubated with TMB substrate (BioFx) for 15 min at RT. Reactions were stopped with stop solution (BioFx) and absorbance was read at 450 nm in a microplate reader (SpectraMax M5e, Molecular Devices).
Plates were blocked for 2 hours with 2% BSA in PBS at room temperature (RT). […] Peptides were reconstituted as 100% DMSO stocks, resulting in a final concentration of DMSO in the assay of 2% for all samples. Plates were washed three times with PBS containing 0.05% Tween-20 (PBS-T) and then incubated with a 1:10,000 dilution of streptavidin-HRP (Piece) diluted in assay buffer for 90 minutes at RT. Plates were washed an additional three times with PBS-T and then incubated with TMB substrate (BioFx) for 15 minutes at RT. The reaction was stopped with stop solution (BioFx) and absorbance was read at 450 nm in a microplate reader (SpectraMax M5e, Molecular Devices).

Compound: CC(=O)N[C@@H](CC(=O)O)C(=O)N1CCC[C@H]1C(=O)N[C@H]1CSSC[C@@H](C(=O)N[C@@H](CC(C)C)C(=O)N[C@@H](CCC(N)=O)C(=O)NCC(=O)NCC(=O)N[C@@H](CCCCNC(=O)CCOCCOCCOCCOCCOCCNC(=O)CCC(=O)N2Cc3ccccc3C#Cc3ccccc32)C(N)=O)NC(=O)[C@H](CCC(=O)O)NC(=O)[C@H](CCCNC(=N)N)NC(=O)CNC(=O)[C@H](Cc2c[nH]c3ccccc23)NC(=O)[C@H](C(C)C)NC(=O)[C@H](CCC(=O)O)NC(=O)[C@H](Cc2c[nH]c3ccccc23)NC(=O)[C@H]([C@@H](C)O)NC1=O [Peptide P2]
kd ([1]; Without EGF): 9 ± 2 × 10^−3 s^−1
kd [2]: 7 ± 2 × 10^−3 s^−1

Compound: COc1ccc2[nH]cc(C[C@@H]3NC(=O)[C@H](C(C)C)NC(=O)[C@H](CCC(=O)O)NC(=O)[C@H](C4Cc5ccccc5C4)NC(=O)[C@H]([C@@H](C)O)NC(=O)[C@@H](NC(=O)[C@@H]4CCCN4C(=O)[C@H](CC(=O)O)NC(C)=O)C(C)(C)SSC(C)(C)[C@@H](C(=O)N[C@@H](CC(C)C)C(=O)N[C@@H](CCC(N)=O)C(=O)NCC(=O)NCC(=O)N[C@@H](CCCCNC(=O)CCOCCOCCOCCOCCOCCNC(=O)CCC(=O)N4Cc5ccccc5C#Cc5ccccc54)C(N)=O)NC(=O)[C@H](CCC(=O)O)NC(=O)[C@H](CCCNC(=N)N)NC(=O)CNC3=O)c2c1 [P2-55/102, Ac-DPPenT(2Ind)GEV(5MeO)WGREPenLQGGK(DBCO)-CONH2] (Ac-DP[Pen]T[Igl]EV[Trp(5-OMe)]GRE[Pen]LQGGK([PEG5-Suc-DBCO])-NH2; disulfide 3-12)
IC50 [3]: 829 nM

Compound: COc1ccc2[nH]cc(C[C@@H]3NC(=O)[C@H](C(C)C)NC(=O)[C@H](CCC(=O)O)NC(=O)[C@H](C4Cc5ccccc5C4)NC(=O)[C@H]([C@@H](C)O)NC(=O)[C@@H](NC(=O)[C@H](C)NC(=O)[C@H](CC(=O)O)NC(C)=O)C(C)(C)SSC(C)(C)[C@@H](C(=O)N[C@@H](CC(C)C)C(=O)N[C@@H](CCC(N)=O)C(=O)NCC(=O)NCC(=O)N[C@@H](CCCCNC(=O)CCOCCOCCOCCOCCOCCNC(=O)CCC(=O)N4Cc5ccccc5C#Cc5ccccc54)C(N)=O)NC(=O)[C@H](CCC(=O)O)NC(=O)[C@H](CCCNC(=N)N)NC(=O)CNC3=O)c2c1 [P2-2/55/102, Ac-DAPenT(2Ind)GEV(5MeO)WGREPenLQGGK(DBCO)-CONH2] (Ac-DA[Pen]T[Igl]EV[Trp(5-OMe)]GRE[Pen]LQGGK([PEG5-Suc-DBCO])-NH2; disulfide 3-12)
IC50 [3]: 609 nM

nanoparticle binding signal ([4]; 5% and 10% ligand density, FIG. 8B): comparable to EGF-NP
nanoparticle binding ([4]; 5% ligand density): minimal binding
nanoparticle binding ([4]; 10% ligand density): more robust binding
Compound: Ac-SECFPLAPDWLSCILGGK(DBCO)-CONH2 (Ac-SECFPLAPDWLSCILGGK(DBCO′)-NH2; disulfide 3-13 (inferred)) [Peptide P1]

Compound: CC[C@H](C)[C@H](NC(=O)[C@@H]1CSSC[C@H](NC(=O)[C@H](CCC(=O)O)NC(=O)[C@H](CO)NC(C)=O)C(=O)N[C@@H](Cc2ccccc2)C(=O)N2CCC[C@H]2C(=O)N[C@@H](C)C(=O)N[C@@H](C)C(=O)N2CCC[C@H]2C(=O)N[C@@H](CC(=O)O)C(=O)N[C@@H](Cc2c[nH]c3ccccc23)C(=O)N[C@@H](CC(C)C)C(=O)N[C@@H](CO)C(=O)N1)C(=O)N[C@@H](CC(C)C)C(=O)NCC(=O)NCC(=O)N[C@@H](CCCCNC(=O)CCOCCOCCOCCOCCOCCNC(=O)CCC(=O)N1Cc2ccccc2C#Cc2ccccc21)C(N)=O [Peptide P1-3]
IC50 [5]: 4100 nM

Compound: C#CC[C@H](NC(=O)CN)C(=O)NCC(=O)NCC(=O)N[C@@H](CS)C(=O)N[C@@H](CCCNC(=N)N)C(=O)N[C@@H](Cc1ccccc1)C(=O)N[C@@H](CC(C)C)C(=O)N[C@H](C(=O)N[C@@H](CCC(N)=O)C(=O)N[C@@H](CCC(=O)O)C(=O)N[C@@H](CC(=O)O)C(=O)N[C@@H](CCCCN)C(=O)N1CCC[C@H]1C(N)=O)C(C)C [TGFf-9] (H-G[Pra]GGCRFLVQEDKP-NH2)
KD ([1]; Table 6, TGF fragments): No binding

KD (μM) [1]: nb
Relative Affinity [1]: nb
Compound: P2-3: P2 alanine scan analog, alanine at position 3 (Ac-DPATWEVWGRECLQ-NH2) [Peptide P2-3]

KD (μM) [1]: nb
Relative Affinity [1]: nb
Compound: P2-12: P2 alanine scan analog, alanine at position 12 (Ac-DPCTWEVWGREALQ-NH2) [Peptide P2-12]
